From article PMC12332008, “Ribosome biogenesis in plants requires the nuclear envelope and mitochondria localized OPENER complex” (Nature Communications, 2025) come the findings set out here.

Where two headings read alike, the source gives them in different places.

In assay [1] the target is T1, OAP1 (recombinant, 6xHis-tag removed) (Arabidopsis thaliana, UniProt F4K9I8 1-303).
T1 construct: OPENER ASSOCIATED PROTEIN 1 (OAP1), Arabidopsis thaliana, AT5G07950; printed molecular weight 34 kDa; not shown: 6xHis, N-terminal, cleaved
T1 sequence (looked up): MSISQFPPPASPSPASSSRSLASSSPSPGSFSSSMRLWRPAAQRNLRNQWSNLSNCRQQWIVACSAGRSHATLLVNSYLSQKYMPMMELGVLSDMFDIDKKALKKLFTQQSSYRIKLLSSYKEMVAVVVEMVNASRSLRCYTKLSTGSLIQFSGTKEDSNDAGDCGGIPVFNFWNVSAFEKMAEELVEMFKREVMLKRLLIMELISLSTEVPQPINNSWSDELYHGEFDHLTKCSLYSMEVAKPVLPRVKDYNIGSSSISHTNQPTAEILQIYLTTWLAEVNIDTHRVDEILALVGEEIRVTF
Nature of the assay: SEC; OPNR-OAP1-OAP2 complex after removal of the 6xHis-tag; Superdex200 16/600.

Assay [2] has as its target 6xHis-OAP1 (Arabidopsis thaliana). Put plainly: co-purification of co-expressed proteins (Ni-NTA); 6xHis-OAP1, OAP2 and OPNR expressed together in E. coli BL21(DE3), purified on Ni-NTA resin by the His tag of OAP1; molar ratio from the gel.

What is called stoichiometry N is a count of units in the complex or per binding partner. Regarding OAP2 (recombinant) (natural protein), the stoichiometry N in assay [1] and in assay [2] was 1 each time.

B1: OPNR (recombinant) (natural protein, Arabidopsis thaliana, UniProt Q6NPG7 1-195, looked up)
chain: MEAVIRKWQQKFRKGKEEMEKWEALQVRWVSLFRNASSIIQRLQEMQNHGSYGALRCLKGIEDAVVQQQMGQLESLLRSMKNVMEEFWGCVLTFEKLHRDGLQLREIESSKRRVEERIGVKPCITDCLEGLSILYDMHQSEYHLKSSILSVLSCLILKPSPGDLNALQYLVVDQPNIPKDEVQHIFDVIFAEEIK
notes: OPENER (OPNR), Arabidopsis thaliana, AT5G43822; printed molecular weight 23 kDa; also called OPENER; source: E. coli BL21(DE3), co-expressed with 6xHis-OAP1 and OAP2 from pACYCDuet-1, co-purified (Ni-NTA, Superdex200)
Consider B1, for which the “stoichiometry N” value in assay [1] (both partners purified) and in assay [2] was 1 each time.
